According to patent publication US9993529B2, “Stable formulations of a hyaluronan-degrading enzyme” (Halozyme, Inc., priority 2011, dated 2018):
Where two headings read alike, the source gives them in different places.

Assays:
[1] = Dynamic light scattering, particle size and apparent melting temperature of rHuPH20; assay type: physicochemical; design: unit not given here
[2] = Differential scanning calorimetry, Tm of rHuPH20; assay type: physicochemical; conditions: DSC, presence of […] m-cresol
rHuPH20 = biological target: T1, rHuPH20 (Homo sapiens, UniProt P38567); conditions: for retained % of the original activity / rHuPH20 activity (initial 600 U/mL): 75 mM NaCl
T1 sequence (P38567 36-482): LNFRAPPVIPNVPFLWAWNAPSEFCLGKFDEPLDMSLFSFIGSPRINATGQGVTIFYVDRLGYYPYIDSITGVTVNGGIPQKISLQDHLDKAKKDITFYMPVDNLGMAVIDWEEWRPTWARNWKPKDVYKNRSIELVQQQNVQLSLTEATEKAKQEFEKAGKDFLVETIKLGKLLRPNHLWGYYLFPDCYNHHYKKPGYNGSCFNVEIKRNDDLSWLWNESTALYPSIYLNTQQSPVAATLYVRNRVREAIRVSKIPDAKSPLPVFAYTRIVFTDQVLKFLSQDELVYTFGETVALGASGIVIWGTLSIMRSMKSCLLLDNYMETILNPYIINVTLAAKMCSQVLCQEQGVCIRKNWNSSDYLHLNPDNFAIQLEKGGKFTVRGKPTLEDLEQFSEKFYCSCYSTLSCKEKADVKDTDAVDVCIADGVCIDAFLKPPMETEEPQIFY
Experimental: The activity of a hyaluronan degrading enzyme can be assessed using methods well known in the art. […] A Hyaluronidase Reference Standard (USP) or National Formulary (NF) Standard Hyaluronidase solution can be used in an assay to ascertain the activity, in units, of any hyaluronidase. In one example, activity is measured using a microturbidity assay. […] The turbidity of the resulting sample is measured at 640 nm after an additional development period.

[3] = 1 week 30° C., pH 7.1, 10 mg/mL HA

B1: rHuPH20: secreted soluble recombinant human PH20 hyaluronidase expressed in CHO cells (nucleic acid encoding amino acids 36-482 of SEQ ID NO:1) (protein, listed as Homo sapiens)
chain: T1 sequence (P38567 36-482)
modifications: precursor human PH20
With B1 as the molecule, how does the “Average particle size (DLS)” value ([1]; 20 ° C.) read?
Its value is 9.48.

What about the “Average particle size (DLS)” value ([1]; 22 ° C.) of the same molecule?
Its value is 9.19.

What about the “Average particle size (DLS)” value ([1]; 24 ° C.) of the same molecule?
The value was 9.89.

And the “Average particle size (DLS)” value ([1]; 26 ° C.)?
The value was 9.96.

What about the “Average particle size (DLS)” value ([1]; 28 ° C.) of the same molecule?
Its value is 9.27.

And the “Average particle size (DLS)” value ([1]; 30 ° C.)?
Its value is 8.94.

And the “Average particle size (DLS)” value ([1]; 32 ° C.)?
The value was 8.96.

What about the “Average particle size (DLS)” value ([1]; 34 ° C.) of the same molecule?
Its value is 9.42.

What about the “Average particle size (DLS)” value ([1]; 36 ° C.) of the same molecule?
Its value is 9.28.

What about the “Average particle size (DLS)” value ([1]; 38 ° C.) of the same molecule?
The value was 8.91.

And the “Average particle size (DLS)” value ([1]; 40 ° C.)?
Its value is 9.39.

What about the “Average particle size (DLS)” value ([1]; 42 ° C.) of the same molecule?
The value was 9.72.

What about the “Average particle size (DLS)” value ([1]; 44 ° C.) of the same molecule?
The value was 11.36.

What about the “Average particle size (DLS)” value ([1]; 46 ° C.) of the same molecule?
Its value is 13.08.

What about the “Average particle size (DLS)” value ([1]; 48 ° C.) of the same molecule?
Its value is 21.35.

What about the “Average particle size (DLS)” value ([1]; 50 ° C.) of the same molecule?
Its value is 22.74.

And the “Average particle size (DLS)” value ([1]; 52 ° C.)?
Its value is 28.50.

What about the “Average particle size (DLS)” value ([1]; 54 ° C.) of the same molecule?
The value was 32.95.

What about the “Average particle size (DLS)” value ([1]; 56 ° C.) of the same molecule?
The value was 37.01.

What about the “reduction of Tm of rHuPH20” value [2] of the same molecule?
Its value is “about 2 °C”.

What about the rHuPH20 enzymatic activity (rHuPH20; 1 mM methionine, 30° C., one month) of the same molecule?
The rHuPH20 enzymatic activity was 525 U/mL.

What about the rHuPH20 enzymatic activity (rHuPH20; 20 mM methionine, 30° C., one month) of the same molecule?
The rHuPH20 enzymatic activity was 522 U/mL.

And the “retained % of the original activity” value (rHuPH20; 1 week 30° C., pH 7.1, 1 mg/mL HA)?
Its value is 57%.

What about the “% of the original rHuPH20 remained” value (rHuPH20; 1 week 30° C., pH 7.1, 5.5 mg/mL HA, 100 mM NaCl) of the same molecule?
Its value is 68%.

What about the “rHuPH20 activity (initial 600 U/mL)” value (rHuPH20; [3]) of the same molecule?
Its value is 510 U/mL.

And the “retained % of the original activity” value (rHuPH20; [3])?
Its value is 85%.

And the rHuPH20 enzymatic activity (rHuPH20; 2-8° C., 5 Months, pH 7.0, 50 mM NaCl)?
The rHuPH20 enzymatic activity was 494.4796.

What about the rHuPH20 enzymatic activity (rHuPH20; 2-8° C., 5 Months, pH 7.0, 80 mM NaCl) of the same molecule?
Its rHuPH20 enzymatic activity is 575.3274.

And the rHuPH20 enzymatic activity (rHuPH20; 2-8° C., 5 Months, pH 7.0, 110 mM NaCl)?
The rHuPH20 enzymatic activity was 615.3546.

And the rHuPH20 enzymatic activity (rHuPH20; 2-8° C., 5 Months, pH 7.0, 140 mM NaCl)?
Its rHuPH20 enzymatic activity is 582.4274.

And the rHuPH20 enzymatic activity (rHuPH20; 2-8° C., 5 Months, pH 7.2, 50 mM NaCl)?
Its rHuPH20 enzymatic activity is 481.6035.

And the rHuPH20 enzymatic activity (rHuPH20; 2-8° C., 5 Months, pH 7.2, 80 mM NaCl)?
The rHuPH20 enzymatic activity was 566.2521.

What about the rHuPH20 enzymatic activity (rHuPH20; 2-8° C., 5 Months, pH 7.2, 110 mM NaCl) of the same molecule?
The rHuPH20 enzymatic activity was 593.2027.

What about the rHuPH20 enzymatic activity (rHuPH20; 2-8° C., 5 Months, pH 7.2, 140 mM NaCl) of the same molecule?
The rHuPH20 enzymatic activity was 585.9948.

And the rHuPH20 enzymatic activity (rHuPH20; 2-8° C., 5 Months, pH 7.4, 50 mM NaCl)?
The rHuPH20 enzymatic activity was 526.6628.

What about the rHuPH20 enzymatic activity (rHuPH20; 2-8° C., 5 Months, pH 7.4, 80 mM NaCl) of the same molecule?
Its rHuPH20 enzymatic activity is 564.7769.

What about the rHuPH20 enzymatic activity (rHuPH20; 2-8° C., 5 Months, pH 7.4, 110 mM NaCl) of the same molecule?
Its rHuPH20 enzymatic activity is 618.3856.

What about the rHuPH20 enzymatic activity (rHuPH20; 2-8° C., 5 Months, pH 7.4, 140 mM NaCl) of the same molecule?
The rHuPH20 enzymatic activity was 585.9813.

And the rHuPH20 enzymatic activity (rHuPH20; 2-8° C., 5 Months, pH 7.6, 80 mM NaCl)?
The rHuPH20 enzymatic activity was 546.4209.

And the rHuPH20 enzymatic activity (rHuPH20; 2-8° C., 5 Months, pH 7.6, 110 mM NaCl)?
The rHuPH20 enzymatic activity was 581.6326.

And the rHuPH20 enzymatic activity (rHuPH20; 2-8° C., 5 Months, pH 7.6, 140 mM NaCl)?
Its rHuPH20 enzymatic activity is 594.6197.

What about the rHuPH20 enzymatic activity (rHuPH20; 2-8° C., 9 Months, pH 7.0, 50 mM NaCl) of the same molecule?
The rHuPH20 enzymatic activity was 436.5115.

What about the rHuPH20 enzymatic activity (rHuPH20; 2-8° C., 9 Months, pH 7.0, 80 mM NaCl) of the same molecule?
The rHuPH20 enzymatic activity was 513.9692.

And the rHuPH20 enzymatic activity (rHuPH20; 2-8° C., 9 Months, pH 7.0, 110 mM NaCl)?
Its rHuPH20 enzymatic activity is 551.0218.

What about the rHuPH20 enzymatic activity (rHuPH20; 2-8° C., 9 Months, pH 7.0, 140 mM NaCl) of the same molecule?
The rHuPH20 enzymatic activity was 554.6513.

What about the rHuPH20 enzymatic activity (rHuPH20; 2-8° C., 9 Months, pH 7.2, 50 mM NaCl) of the same molecule?
Its rHuPH20 enzymatic activity is 451.8324.

What about the rHuPH20 enzymatic activity (rHuPH20; 2-8° C., 9 Months, pH 7.2, 80 mM NaCl) of the same molecule?
Its rHuPH20 enzymatic activity is 518.0740.

What about the rHuPH20 enzymatic activity (rHuPH20; 2-8° C., 9 Months, pH 7.2, 110 mM NaCl) of the same molecule?
The rHuPH20 enzymatic activity was 553.1847.

What about the rHuPH20 enzymatic activity (rHuPH20; 2-8° C., 9 Months, pH 7.2, 140 mM NaCl) of the same molecule?
The rHuPH20 enzymatic activity was 536.7846.

And the rHuPH20 enzymatic activity (rHuPH20; 2-8° C., 9 Months, pH 7.4, 50 mM NaCl)?
Its rHuPH20 enzymatic activity is 466.1871.

What about the rHuPH20 enzymatic activity (rHuPH20; 2-8° C., 9 Months, pH 7.4, 80 mM NaCl) of the same molecule?
Its rHuPH20 enzymatic activity is 509.9032.

What about the rHuPH20 enzymatic activity (rHuPH20; 2-8° C., 9 Months, pH 7.4, 110 mM NaCl) of the same molecule?
The rHuPH20 enzymatic activity was 560.4847.

And the rHuPH20 enzymatic activity (rHuPH20; 2-8° C., 9 Months, pH 7.4, 140 mM NaCl)?
Its rHuPH20 enzymatic activity is 542.4534.

What about the rHuPH20 enzymatic activity (rHuPH20; 2-8° C., 9 Months, pH 7.6, 50 mM NaCl) of the same molecule?
Its rHuPH20 enzymatic activity is 464.8964.

What about the rHuPH20 enzymatic activity (rHuPH20; 2-8° C., 9 Months, pH 7.6, 80 mM NaCl) of the same molecule?
Its rHuPH20 enzymatic activity is 515.3382.

And the rHuPH20 enzymatic activity (rHuPH20; 2-8° C., 9 Months, pH 7.6, 110 mM NaCl)?
Its rHuPH20 enzymatic activity is 531.9202.

And the rHuPH20 enzymatic activity (rHuPH20; 2-8° C., 9 Months, pH 7.6, 140 mM NaCl)?
The rHuPH20 enzymatic activity was 523.5385.

What about the rHuPH20 enzymatic activity (rHuPH20; insulin/rHuPH20 follow up study, starting) of the same molecule?
The rHuPH20 enzymatic activity was 650 U/mL.

What about the “rHuPH20 activity (initial 600 U/mL)” value (rHuPH20; rHuPH20/insulin, 1 week 30° C., pH 7.1, 1 mg/mL HA) of the same molecule?
The value was 341 U/mL.

What about the rHuPH20 enzymatic activity (rHuPH20; regular insulin/rHuPH20, 2-8° C., 5 Months, pH 7.6, 50 mM NaCl) of the same molecule?
Its rHuPH20 enzymatic activity is 508.0571.
